Data on two molecules can be found in paper doi:10.1101/2021.03.23.436624 (bioRxiv, 2021).

Data set [1] addresses N. gonorrhoeae LptD (1-801)-3C-His10 and LptE (1-159)-AVI complex, biotinylated (Neisseria gonorrhoeae) (UniProt Q5F651). The data set can be described thus: grating coupled interferometry.
Data set [2] concerns the molecule itself. The data set is described as follows: cryo-EM structure.

B1: Sybody 21 (Sb21) (VHH)
VHH: QVQLVESGGGLVQAGGSLRLSCAASGFPVKYEHMYWYRQAPGKEREWVAAINSAGNETHYADSVKGRFTISRDNAKNTVYLQMNSLKPEDTAVYYCNVKDIGWWAAYDYWGQGTQVTV
B1 had a Kd in data set [1] of 10 nM.

B2: Neisseria gonorrhoeae LptD (NgLptD) (natural protein, UniProt Q5F651 24-801, looked up)
chain: ADTVAAEEADGRVAEGGAQGASESAQASDLTLGSTCLFCSNESGSPERTEAAVQGSGEASVPEDYTRIVADRMEGQSKVKVRAEGSVIIERDGAVLNTDWADYDQSGDTVTVGDRFALQQDGTLIRGETLTYNLDQQTGEAHNVRMETEQGGRRLQSVSRTAEMLGEGRYKLTETQFNTCSAGDAGWYVKAASVEADRGKGIGVAKHAAFVFGGVPLFYTPWADFPLDGNRKSGLLVPSVSAGSDGVSLSVPYYFNLAPNFDATFAPGIIGERGATFDGQIRYLRPDYSGQTDLTWLPHDKKSGRNNRYQAKWQHRHDISDTLQAGVDFNQVSDSGYYRDFYGGEEIAGNVNLNRRVWLDYGGRAAGGSLNAGLSVQKYQTLANQSGYKDEPYAIMPRLSADWHKNAGRAQIGVSAQFTRFSHDGRQDGSRLVVYPGIKWDFSNSWGYVRPKLGLHATYYSLDSFGGKASRSVGRVLPVVNIDGGTTFERNTRLFGGGVVQTIEPRLFYNYIPAKSQNDLPNFDSSESSFGYGQLFRENLYYGNDRINAANSLSTAVQSRILDGATGEERFRAGIGQKFYFKDDAVMLDGSVGKNPRSRSDWVAFASGGIGGRFTLDSSIHYNQNDKRAEHYAVGAGYRPAPGKVLNARYKYGRNEKIYLQADGSYFYDKLSQLDLSAQWPLTRNLSAVVRYNYGFEAKKPIEMLAGAEYKSSCGCWGAGVYAQRYVTGENTYKNAVFFSLQLKDLSSVGRNPAGRMDVAVPGYIPAHSLSAGRNKRP
On to B2, for which, in data set [2], the binding result was “binds”.
